This is an account of results in the nanobody polyreactivity screen of Harvey et al. (2022).

This data set can be described thus: yeast display, Sf9 membrane polyspecificity reagent, FACS + sequencing; frameworks hold sequencing errors. In short, it runs like this: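 Using colony PCR, genes from sorted yeast display clones were amplified, then sequenced on MiSeq at 2 × 250 and filtered by CDR length. The clones had been stained with 10% biotinylated, detergent-solubilized Sf9 membrane reagent for 1 hour at 4 °C and sorted by FACS into low and high (top ~1%) gates on anti-HA and streptavidin fluorescence. Polyreactivity labels come from the gate of origin.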
Turning to “QVQLVESGGGLVQAGGSLRLSCAASGRIFGVYTMGWSRQAPGKERELVAAITSGGNTNYADSVKGRFTISRDNAKNNVYLQMNSLKPEDTAVYYCAARSVRNFYYPGHNYRGQGTQVTVSS”, the “polyreactivity (PSR sort gate)” value is listed as “low polyreactivity”.

“QVQLVESGGGLVQAGGSLRLSCAASGRIFGWYAMGWYRQAPGKERELVAAIDGGDDSTYYADSVKGRFTISRDNAKNTVYLQMNSLKPEDTAVYYCAVVGYNWGQGSQVTVSS”: the “polyreactivity (PSR sort gate)” value is “low polyreactivity”.

As to “QVQLVESGGGLVQAGGSLRLSCAASGRIFGWYAMGWYRQAPGKERELVAAITSGSRTSYADSVKGRFTISRDNAKNTVYLQMNSLKPVDTAVYYCNRVSHLDYYWGQGTQVTVSS”, the “polyreactivity (PSR sort gate)” value is reported as “high polyreactivity”.

Regarding “QVQLVESGGGLVQAGGSLRLSCAASGRIFGWYAMGWYRQAPGKERELVAAITWSGTSTYYAYSVKGRFTISRDNAKNTVYLQMNSLKPEDTAVYYCAAEPGWTMDYWGQGTQVTVSS”, the “polyreactivity (PSR sort gate)” value is reported as “low polyreactivity”.

For “QVQLVESGGGLVQAGGSLRLSCAASGRIFGWYAMGWYRQAPGKERELVADIRYRGGSTYYADSVKGRFTISRDNAKNTVYLQMHSLKPEDTAVYYCAALGFVPVPYDYWGQGTQVNVSS”, the “polyreactivity (PSR sort gate)” value is listed as “low polyreactivity”.

With “QVQLVESGGGLVQAGGSLRLSCAASGRIFGWYAMGWYRQAPGKEWELVAAITSGSRTSYADSVKGRFTISRDNAKNTDYLQMNSLNPEDTAVYYCARRSYGIYYRSADDSWGQGTQVTGSS”, the “polyreactivity (PSR sort gate)” value was “high polyreactivity”.

Regarding “QVQLVESGGGLVQAGGSLRLSCAASGRIFGWYTMGWYRQAPGKERELVADINFGGSTYYADSVKGRFTISRDNAKNTVYLQMNSLTPEDTAVYYCNADYSVYIIADEYDYCGQGTQVTVSS”, the “polyreactivity (PSR sort gate)” value was “low polyreactivity”.

As to “QVQLVESGGGLVQAGGSLRLSCAASGRIFGYAMGWYRQAPGKERELVAAITSSGGRTYYADSVKGRFTISRDNVKNTVYLQMNSLKPVDTAVYYCAKKWPVYRSYDYWGQGTQVTVSS”, the “polyreactivity (PSR sort gate)” value was “high polyreactivity”.

As to “QVQLVESGGGLVQAGGSLRLSCAASGRIFGYIAMGWYRPAPGKERELVAAISWSGGSTYYADSVKGRFTISRDNAKNTVYLQMNSLKPEDTAVYYCAADSQDGYFYWGQGTQVTVSS”, the “polyreactivity (PSR sort gate)” value is “low polyreactivity”.

In the case of “QVQLVESGGGLVQAGGSLRLSCAASGRIFGYNAMGWYRQAPGKERELVAAIRGGGSTYYADSVKGRFTISRDNAKNSVYLQMYSLKPEDSAFYFCAATSYTYVLSPYRGDYWGQGTQVNVSS”, the “polyreactivity (PSR sort gate)” value was “high polyreactivity”.

Consider “QVQLVESGGGLVQAGGSLRLSCAASGRIFGYNAMGWYRQAPGKERELVASITSAASTYYADSVKGRFTISRDNAKNTVYLQMNSLKPEDTAVYYCAASAYSALFYWYDYWGQGTQVTVSW”, for which the “polyreactivity (PSR sort gate)” value is reported as “high polyreactivity”.

Turning to “QVQLVESGGGLVQAGGSLRLSCAASGRIFGYNAMGWYRQATGNERELVAAITNGGSTNYADSVKGRFTISRDNAKNTVYLQMNSLKPEDTAVYYCAVKWYPPGHDYWGQGTQVTVSS”, the “polyreactivity (PSR sort gate)” value was “low polyreactivity”.

Take “QVQLVESGGGLVQAGGSLRLSCAASGRIFGYNTMGWYRQAPGKERELVAAINSGGRTYYADSVKGRFTISRDNAKNTVYLQMNSLKPEDTAVYYCAKPGLYFATFKKYDYWGQGTQVTVSS”: the “polyreactivity (PSR sort gate)” value is listed as “high polyreactivity”.

For “QVQLVESGGGLVQAGGSLRLSCAASGRIFGYNTMGWYRQPPGKERELVAAITSTGRTYYADSVKGRFTISRDNAKNTVYLQMNSLKPEDTAVYYCNARSSYGWPKYYYWGQGTQVTVSS”, the “polyreactivity (PSR sort gate)” value is on record as “high polyreactivity”.

“QVQLVESGGGLVQAGGSLRLSCAASGRIFGYYAMGWYRPAPGKERELVAGISARGGSTYYADSVKGRFTISRDNAKNTVYLQMNSLKPEDTAVYYCNKTRHDWFRTDSIRESAEYDYWGQGTQVTVSS”: the “polyreactivity (PSR sort gate)” value is given as “low polyreactivity”.

“QVQLVESGGGLVQAGGSLRLSCAASGRIFGYYAMGWYRQAPGKERELVAAIRSSGGSTYYADSVKGRFTISRDNAKNTVYLQMNSLKPEDTAVYYCNKGAAWRPFFGPYYNYEYWGQGTQVTVSS”: the “polyreactivity (PSR sort gate)” value is recorded as “high polyreactivity”.

“QVQLVESGGGLVQAGGSLRLSCAASGRIFGYYAMGWYRQAPGKERELVAAISSSGGSTYYADSVKGRFTISRDNAKNTVYLQMNSLKPEDTAVYYCAAGGPRVNGYGRAYDYWGQGTQVTVSS”: the “polyreactivity (PSR sort gate)” value is given as “high polyreactivity”.

Turning to “QVQLVESGGGLVQAGGSLRLSCAASGRIFGYYAMGWYRQAPGKERELVAAISWTGASTYYADSVKGRFTISRDNAKNTVYLQMNSLKPEDTAVYYCAVDRGLDYYWGQGTQVTVSS”, the “polyreactivity (PSR sort gate)” value is “high polyreactivity”.

Consider “QVQLVESGGGLVQAGGSLRLSCAASGRIFGYYAMGWYRQAPGQERELVAAITRNGGSTYYADSVKGRFTISRDNAKNTVYLQMTSLKPEDTAVYYCAATKGGGRGYWGQGTQVTVSS”, for which the “polyreactivity (PSR sort gate)” value was “high polyreactivity”.

As to “QVQLVESGGGLVQAGGSLRLSCAASGRIFGYYGMGWYRQAPGKERELVAGITSSGGSTYYADSVKGRFTISRDNAKNTVYLQMNSLKPEDTAVYYCNVRRYGSRFDYWGQGTQVTVSS”, the “polyreactivity (PSR sort gate)” value is “high polyreactivity”.

Consider “QVQLVESGGGLVQAGGSLRLSCAASGRIFGYYTMGWYRQAPGKERELVAAINGRGTSTYYADSVKGRFTISRDNAKNTVYLQMNSLKPEDTAVYYCAARYTRTVGYDYWGQGTQVTVSS”, for which the “polyreactivity (PSR sort gate)” value is recorded as “high polyreactivity”.

For “QVQLVESGGGLVQAGGSLRLSCAASGRIFGYYVMGWYRQAPGKERELVATISSGGSTYYADSVKGRFTISRDNAKNTVYLQMNSLKPEDTAVYYCNTDRYHRVDFEYWGQGTQVTVSS”, the “polyreactivity (PSR sort gate)” value is reported as “high polyreactivity”.

As to “QVQLVESGGGLVQAGGSLRLSCAASGRIFHGYAMGWYRQAPGKERELVATIRSGGGTYYADSVKGRFTISRDNAKNSVYLQINSLKPDDTAVYYCNAQSSYSYFSGYDYWGQGSQVTVSS”, the “polyreactivity (PSR sort gate)” value is “low polyreactivity”.

On to “QVQLVESGGGLVQAGGSLRLSCAASGRIFHHNAMGWYRQAPGKERELVATITKSGGSTYADSVKGRFTISRDNAKNTVYLQMNSLKPEDTAVYYCDADVTNRGTWVIYGYYYWGQGTQVTVSS”, for which the “polyreactivity (PSR sort gate)” value was “low polyreactivity”.

For “QVQLVESGGGLVQAGGSLRLSCAASGRIFHIYAMGWYRPAPGKERELVAAIRSSGGSTYYADSVKGRFTISRDNAMNTVYLQMNSLKPEDTAVYYCNKYVAYDYWGQGTQVTVSS”, the “polyreactivity (PSR sort gate)” value is recorded as “low polyreactivity”.

For “QVQLVESGGGLVQAGGSLRLSCAASGRIFHLYAMGWYRQAPGKERELVAAITFSGGSTYYADSVKGRFTISRDNAKNTVYLQMNSLKPEDTAVYYCAKRSFYLFSSRLPFKYDYGGQGTQVTVSS”, the “polyreactivity (PSR sort gate)” value is “low polyreactivity”.

Regarding “QVQLVESGGGLVQAGGSLRLSCAASGRIFHPNVMGWYRQAPGKERELVAAISSGGSTYYADSVKGRFTISRDNAKNTVYLQMNSLKPEDTAVYYCATRIRSGSYPYPRYDYWGQGTQVTVSS”, the “polyreactivity (PSR sort gate)” value is “high polyreactivity”.

With “QVQLVESGGGLVQAGGSLRLSCAASGRIFHQNTMGWYRQAPGKERELVAAISATGGGTNYADSVKGRFTISRDNAKNTVYLQMNSLKPEDTAVYYCAVRPKTSWYSWYYWGQGTQVTVSS”, the “polyreactivity (PSR sort gate)” value is “low polyreactivity”.

For “QVQLVESGGGLVQAGGSLRLSCAASGRIFHRNAMGWYRQAPGKERELVARITRSGTSTYYADSVKGRFTISRDNAKNTVYLQMNSLKQEDTAVYYCAADNASPSLGEYNYWGQGTQVTVSS”, the “polyreactivity (PSR sort gate)” value was “low polyreactivity”.

For “QVQLVESGGGLVQAGGSLRLSCAASGRIFHRNAMGWYRQAPGQERELVARITRSGTSTYYADSVKGRFTISRDNAKNTVYLQMNSLKPEDTAVYYCAADNASPSLGEYNYWGQGTQVTVSS”, the “polyreactivity (PSR sort gate)” value is on record as “low polyreactivity”.

As for “QVQLVESGGGLVQAGGSLRLSCAASGRIFHSNAMGWYRQAPGKESELVADINRDGSTNYADSVKGRFTISRDNAKNTVYLQMNSLKPEDTAVYYCAKPYYSWPRYNHFEYWGQGTQVTVSS”, the “polyreactivity (PSR sort gate)” value is on record as “low polyreactivity”.

For the sequence “QVQLVESGGGLVQAGGSLRLSCAASGRIFHWYAMGWYRQAPGKERELVAAIRWTGGSTYYADSVKGRFTISRDNAKNTVYLQMNSLKPEDTAVYYCAAKGYTGIFYEMDYWGQGTQVTVSS”, the “polyreactivity (PSR sort gate)” value was “low polyreactivity”.

Regarding “QVQLVESGGGLVQAGGSLRLSCAASGRIFHWYTMGWYRQAPGKERELVATITDGGSTYYADSVKGRFTISRDNAKNTVYLQMNSLKPEDTAVYYCAARKIGTRRLRYPYYIFGYWGQGTQVTVSS”, the “polyreactivity (PSR sort gate)” value is on record as “high polyreactivity”.

For “QVQLVESGGGLVQAGGSLRLSCAASGRIFHYNAMGWYRQAPGKEREFVASISGSGGRTYYADSVKGRFTISRDNAKNTVYLQMNSLKPEDTAVYYCAASYYGHRYWGQGTQVTVSS”, the “polyreactivity (PSR sort gate)” value is “low polyreactivity”.

As for “QVQLVESGGGLVQAGGSLRLSCAASGRIFHYYAMGWYRQAPGKERELVAAINKSGGRTYYADSVKGRFTISRDNAKNTVYLQMNSLKPEDTAVYYCAADVPGVTTSYAPYDSDYWGQGTQVTVSS”, the “polyreactivity (PSR sort gate)” value is listed as “high polyreactivity”.

“QVQLVESGGGLVQAGGSLRLSCAASGRIFHYYAMGWYRQAPGKERELVAAISNTDGSTYYADSVKGRFTISRDNAKYTVYLQMNSLKPEDTAVYYCAADSLGALYRGNYPYGYWGQGTQVNVSS”: the “polyreactivity (PSR sort gate)” value is listed as “high polyreactivity”.

As to “QVQLVESGGGLVQAGGSLRLSCAASGRIFHYYAMGWYRQAPGKERELVAASTFRGGNTYADSVKGRFTISRDNAKNTVYLQMNSLKPEDTAVYYCADSRLSGYYSRYGYWGQGTQVTVSS”, the “polyreactivity (PSR sort gate)” value is given as “high polyreactivity”.

Turning to “QVQLVESGGGLVQAGGSLRLSCAASGRIFHYYAMGWYRQAPGKERELVAGITSGGSTYYADSVKGRFTISRDNAKNTVYLQMNSLKPEDTAVYYCATTRYGGSRRYRPYDRERDYWGLGTQVTVSS”, the “polyreactivity (PSR sort gate)” value is given as “low polyreactivity”.

For the sequence “QVQLVESGGGLVQAGGSLRLSCAASGRIFIEYAMGWYRQAPGKERELVATINSSGGRTYYADSVKGRFTISRDNAKNTVYLQMHSLKPEDTAVYYCNADVGLLYTETYEYDYWGQGTQVTVSS”, the “polyreactivity (PSR sort gate)” value was “low polyreactivity”.

Regarding “QVQLVESGGGLVQAGGSLRLSCAASGRIFIFNAMGWYRQAPGKERELVAAISTRGGSTRYADSVKGRFTISRDNAKNTVYLQMNSLKPEDTAVYYCAAVYLYYAYAFDYWGQGTQVTVSS”, the “polyreactivity (PSR sort gate)” value is on record as “high polyreactivity”.

As to “QVQLVESGGGLVQAGGSLRLSCAASGRIFIGNAMGWSRQAPGKERELVAAISSSGGSTYYADSVKGRFTISRDNAKNTVYLQMNSLKPEDTAVYYCAAETKNAPRFYPYSNEGYYYWGHGTQVTVSS”, the “polyreactivity (PSR sort gate)” value was “low polyreactivity”.
